Experimental findings from patent US20260274975A1 are described below.

Non-standard residues stand in square brackets, D forms with d. No end group written: not given here.

This assay has as its target Anti-Müllerian hormone Receptor 2 (AMH-R2), protein target applied to the peptide microarray (UniProt Q16671). Put plainly: peptide microarray; protein target detected by anti-GST and Alexa Fluor 647 antibody, scanned signal.
Chain of UniProt Q16671 (Q16671 18-149 limits assumed): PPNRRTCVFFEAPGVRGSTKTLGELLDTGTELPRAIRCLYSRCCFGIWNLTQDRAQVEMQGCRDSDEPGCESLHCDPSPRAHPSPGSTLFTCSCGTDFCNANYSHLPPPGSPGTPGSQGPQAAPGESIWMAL
Y[dW]G[dW]SHA[dK][dA]NQFPN[dR][dL][dA] [AMH receptor binding peptide SEQ ID NO: 3] registered an Average of 65500, a Rep 1 of 65500 and a Rep 2 of 65500.
The molecule G[dL]Y[dW]SAYNP[dW][dR]HV[dA][dL][dA]S [AMH receptor binding peptide SEQ ID NO: 18] displayed an Average of 59200, a Rep 1 of 60800 and a Rep 2 of 57500.
For G[dL]Q[dW]SFANGQ[dW][dR]G[dA][dL]SG [AMH receptor binding peptide SEQ ID NO: 12], in that order: 63800, 64600 and 62900.
For GG[dR]SVSAN[dL]Q[dR]E[dR][dK]V[dA]G [AMH receptor binding peptide SEQ ID NO: 19], in that order: 56900, 55700 and 58100.
Molecule NG[dR]SQAHN[dL][dR][dK][dA]GV[dA][dL]S [AMH receptor binding peptide SEQ ID NO: 15] showed an Average of 61500, a Rep 1 of 62900 and a Rep 2 of 60000.
Turning to DG[dL]GSV[dL]A[dR][dK]N[dR][dR]D[dA]V[dL] [AMH receptor binding peptide SEQ ID NO: 5], the Average is 65500, the Rep 1 was found to be 65400 and the Rep 2 was found to be 65500.
With [dR][dW]G[dA]SN[dK]HFAN[dA]NQ[dR][dA][dL] [NegAMHR2BP (SEQ ID NO: 4)], the Average is 65500, the Rep 1 came to 65500 and the Rep 2 came to 65400.
As for [dK]GSNA[dR][dK]N[dR][dR]D[dA]SGV[dA][dL] [AMH receptor binding peptide SEQ ID NO: 20], the Average worked out at 47900, the Rep 1 is 52300 and the Rep 2 was determined as 43500.
Taken in the same sequence, the figures for EG[dL]QSSAYNNY[dW][dR][dK][dL]V[dA] [AMH receptor binding peptide SEQ ID NO: 17] were 61200, 60200 and 62200.
